Source: patent US20030027228A1 (MYRIAD GENETICS, published 2003)
* marks the point of attachment. Biotin = O=C1N[C@H]2[C@H](CS[C@H]2CCCCC(=O)*)N1

T1: MMAC1.388-403 biotin-ENEPFDEDQHTQITKV-COOH (SMILES …)
T1 construct: also called the 16 C-terminal amino acids of MMAC1
T1 peptide: Biotin-ENEPFDEDQHTQITKV-OH

T2: SH3 binding peptide biotin-SGSGILAPPVPPRNTR-COOH (SMILES …)
T2 peptide: Biotin-SGSGILAPPVPPRNTR-OH

T3: AF6 PDZ binding peptide biotin-SGDDGDDPFLQYEFYV-COOH (SMILES …)
T3 peptide: Biotin-SGDDGDDPFLQYEFYV-OH

B1: GST fusion of MMSC1 PDZ domain 9 (amino acids 1532-1613) (other)
chain: FPVDLQKKAGRGLGLSIVGKRNGSGVFISDIVKGGAADLDGRLIQGDQILSVNGEDMRNASQETVATILKCAQGLVQLEIGR
notes: Expressed in E. coli, purified on glutathione-agarose, adsorbed to the ELISA plate; GST is placed N-terminal as in pGEX vectors; also called MMSc1 PDZ 9; PDZ domain number 9; not shown: glutathione S-transferase (GST) encoded by pGEX vectors (Pharmacia)
B2: GST fusion of MMSC1 PDZ domain 5 (amino acids 685-771) (other)
chain: KIVELVKDCKGLGFSILDYQDPLDPTRSVIVIRSLVADGVAERSGGLLPGDRLVSVNEYCLDNTSLAEAVEILKAVPPGLVHLGICK
notes: Expressed in E. coli, purified on glutathione-agarose, adsorbed to the ELISA plate; GST is placed N-terminal as in pGEX vectors; also called MMSc1 PDZ 5; PDZ domain number 5; not shown: glutathione S-transferase (GST) encoded by pGEX vectors (Pharmacia)
B3: GST fusion of MMSC1 PDZ domain 3 (amino acids 364-451) (other)
chain: YNVELVRKDGQSLGIRIVGYVGTSHTGEASGIYVKSVIPGSAAYHNGHIQVNDKIVAVDGVNIQGFANHDVVEVLRNAGQVVHLTLVR
notes: Expressed in E. coli, purified on glutathione-agarose, adsorbed to the ELISA plate; GST is placed N-terminal as in pGEX vectors; also called MMSc1 PDZ 3; PDZ domain number 3; not shown: glutathione S-transferase (GST) encoded by pGEX vectors (Pharmacia)
B4: GST fusion of MMSC1 PDZ domain 8 (amino acids 1436-1518) (other)
chain: MIIEISKGRSGLGLSIVGGKDTPLNAIVIHEVYEEGAAARDGRLWAGDQILEVNGVDLRNSSHEEAITALRQTPQKVRLVVYR
notes: Expressed in E. coli, purified on glutathione-agarose, adsorbed to the ELISA plate; GST is placed N-terminal as in pGEX vectors; also called MMSc1 PDZ 8; PDZ domain number 8; not shown: glutathione S-transferase (GST) encoded by pGEX vectors (Pharmacia)
B5: GST fusion of MMSC1 PDZ domain 6 (amino acids 1067-1158) (other)
chain: RIVEIFREPNVSLGISIVGGQTVIKRLKNGEELKGIFIKQVLEDSPAGKTNALKTGDKILEVSGVDLQNASHSEAVEAIKNAGNPVVFIVQS
notes: Expressed in E. coli, purified on glutathione-agarose, adsorbed to the ELISA plate; GST is placed N-terminal as in pGEX vectors; also called MMSc1 PDZ 6; PDZ domain number 6; not shown: glutathione S-transferase (GST) encoded by pGEX vectors (Pharmacia)
B6: GST fusion of MMSC1 PDZ domain 7 (amino acids 1238-1320) (other)
chain: HIIELEKDKNGLGLSLAGNKDRSRMSIFVVGINPEGPAAADGRMHIGDELLEINNQILYGRSHQNASAIIKTAPSKVKLVFIR
notes: Expressed in E. coli, purified on glutathione-agarose, adsorbed to the ELISA plate; GST is placed N-terminal as in pGEX vectors; also called MMSc1 PDZ 7; PDZ domain number 7; not shown: glutathione S-transferase (GST) encoded by pGEX vectors (Pharmacia)

How the values were obtained:
Experiment in all cases: peptide binding ELISA: GST-PDZ on plate, biotin-peptide/streptavidin-alkaline phosphatase complex, colorimetric
[1] = target: T1, MMAC1.388-403 …
Text: (§1) cDNAs encoding each of the MMSC1 PDZ domains (amino acid residues identified in Table 1), and any desired control proteins, were generated by PCR and subcloned as glutathione S-transferase (GST) fusions in pGEX vectors (Pharmacia). After sequencing to confirm expression construct integrity, the resulting clones were expressed in E. coli and the desired fusion proteins isolated with glutathione-agarose and recovered with glutathione elution. These fusion proteins or control proteins were then adsorbed to different wells of a 96-well ELISA plate and remaining sites blocked with BSA. Synthetic commercially synthesized peptides encoding the desired PDZ-binding domain (i.e., the 16 C-terminal amino acids of MMAC1, or the C-terminal peptide sequences of interacting proteins identified by the approach of Example 2, or the C-terminal peptide sequences identified by the approach of Example 3), or a control peptide, and biotinylated at the amino-terminus, were pre-bound to streptavidin-alkaline phosphatase in a 4:1 molar ratio. The biotinylated peptide streptavidin-alkaline phosphatase complexes were then blocked with free biotin. These pre-bound peptide streptavidin-alkaline phosphatase complexes were then incubated with the immobilized PDZ domains in wash buffer containing PBS, BSA and triton-X100. Unbound material was removed with repeated washes. Bound peptide/streptavidin-alkaline phosphatase complex was then quantitated by a colorimetric phosphatase assay read on a 96-well plate reader.

[2] = target: T2, SH3 binding peptide …
Text: as §1

[3] = target: T3, AF6 PDZ binding peptide …
Text: as §1

Row | Binder | A405 [1] [A405] | A405 [2] [A405] | A405 [3] [A405]
1 | B1 | 0.1 | 0.02 | 2.41
2 | B2 | 0 | 0 | 0.02
3 | B3 | 0.01 | 0.01 | 2.24
4 | B4 | 0.3 | 0 | 0.29
5 | B5 | 0.23 | 0 | 1.46
6 | B6 | 1.25 | 0.01 | 1.05
